test system: Escherichia coli TOP10; assay: shrunken log2 fold change of peptide-encoding DNA abundance (4.5 h post-induction vs induction); higher = less antimicrobial activity (less host growth inhibition); details: time post-induction: 4.5 h; library: site-saturation at positions 5, 18, 19, 20
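Also: peptides expressed intracellularly from a pBAD plasmid library in pooled LB shake-flask culture, induced with 0.3% L-arabinose, DNA abundance read by NGS, three biological replicates, DESeq2 with apeglm shrinkage.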

| Sequence | shrunken log2 fold change |
| --- | --- |
| RRIRGRPPRLPRPRPRPQPDPRP | 0.821 |
| RRIRIRPPRLPRPRPRPNYYPRP | -1.07 |
| RRIRIRPPRLPRPRPRPMGCPRP | 0.00177 |
| RRIRNRPPRLPRPRPRPGTSPRP | -0.0337 |
| RRIRSRPPRLPRPRPRPKHGPRP | -0.22 |
| RRIRLRPPRLPRPRPRPAYQPRP | -0.142 |
| RRIRCRPPRLPRPRPRPMTPPRP | 0.377 |
| RRIRARPPRLPRPRPRPPLGPRP | 0.671 |
| RRIRERPPRLPRPRPRPVFHPRP | -0.238 |
| RRIRCRPPRLPRPRPRPAGTPRP | -0.202 |
| RRIRIRPPRLPRPRPRPPVAPRP | 0.123 |
| RRIRGRPPRLPRPRPRPIAKPRP | 0.245 |
| RRIRVRPPRLPRPRPRPCSKPRP | -0.0775 |
| RRIRERPPRLPRPRPRPCWRPRP | 0.27 |
| RRIRWRPPRLPRPRPRPRKAPRP | 0.285 |
| RRIRRRPPRLPRPRPRPACDPRP | 0.539 |
| RRIRYRPPRLPRPRPRPKRTPRP | -0.0162 |
| RRIRRRPPRLPRPRPRPVMVPRP | -0.153 |
| RRIRMRPPRLPRPRPRPQMAPRP | 0.349 |
| RRIRMRPPRLPRPRPRPCFSPRP | -0.141 |
| RRIRVRPPRLPRPRPRPKTEPRP | 0.00185 |
| RRIRARPPRLPRPRPRPSVNPRP | -0.383 |
| RRIRSRPPRLPRPRPRPGDCPRP | 0.0299 |
| RRIRERPPRLPRPRPRPHTQPRP | -0.362 |
| RRIRNRPPRLPRPRPRPDMFPRP | -0.00166 |

| Sequence | shrunken log2 fold change |
| --- | --- |
| RRIRHRPPRLPRPRPRPFICPRP | 0.00486 |
| RRIRERPPRLPRPRPRPCQLPRP | -0.265 |
| RRIRHRPPRLPRPRPRPHYYPRP | -0.216 |
| RRIRTRPPRLPRPRPRPWSPPRP | -0.37 |
| RRIRSRPPRLPRPRPRPPVYPRP | 0.0599 |
| RRIRWRPPRLPRPRPRPDSVPRP | -0.0816 |
| RRIRTRPPRLPRPRPRPVQKPRP | 0.296 |
| RRIRSRPPRLPRPRPRPNESPRP | -0.153 |
| RRIRGRPPRLPRPRPRPDVDPRP | 1.82 |
| RRIRKRPPRLPRPRPRPINYPRP | -0.0959 |
| RRIRQRPPRLPRPRPRPQCTPRP | -0.0165 |
| RRIRRRPPRLPRPRPRPSWQPRP | 0.133 |
| RRIRGRPPRLPRPRPRPLCWPRP | 0.774 |
| RRIRHRPPRLPRPRPRPKFDPRP | -0.336 |
| RRIRSRPPRLPRPRPRPKFSPRP | 0.0488 |
| RRIRARPPRLPRPRPRPSRKPRP | 0.00605 |
| RRIRGRPPRLPRPRPRPDLVPRP | 0.529 |
| RRIRTRPPRLPRPRPRPCPEPRP | -0.0641 |
| RRIRVRPPRLPRPRPRPRPPPRP | 0.843 |
| RRIRARPPRLPRPRPRPTTHPRP | 0.38 |
| RRIRDRPPRLPRPRPRPAGNPRP | 0.0407 |
| RRIRVRPPRLPRPRPRPKNDPRP | 0.011 |
| RRIRIRPPRLPRPRPRPYCGPRP | -0.179 |
| RRIRGRPPRLPRPRPRPEWRPRP | 1.15 |
| RRIRRRPPRLPRPRPRPTLAPRP | 0.939 |

| Sequence | shrunken log2 fold change |
| --- | --- |
| RRIRVRPPRLPRPRPRPIWNPRP | -0.624 |
| RRIRWRPPRLPRPRPRPNDHPRP | -0.0566 |
| RRIRPRPPRLPRPRPRPSQPPRP | 0.122 |
| RRIRTRPPRLPRPRPRPMSQPRP | -0.000911 |
| RRIRDRPPRLPRPRPRPWMFPRP | -0.0535 |
| RRIRIRPPRLPRPRPRPRYAPRP | -0.14 |
| RRIRSRPPRLPRPRPRPQSRPRP | 0.0912 |
| RRIRVRPPRLPRPRPRPIIPPRP | -0.36 |
| RRIRPRPPRLPRPRPRPLDNPRP | -0.171 |
| RRIRERPPRLPRPRPRPHYEPRP | -0.231 |
| RRIRHRPPRLPRPRPRPCWIPRP | -0.00991 |
| RRIRSRPPRLPRPRPRPMWTPRP | -0.0682 |
| RRIRARPPRLPRPRPRPQLFPRP | 0.18 |
| RRIRKRPPRLPRPRPRPRRTPRP | 0.443 |
| RRIRWRPPRLPRPRPRPEPTPRP | 0.857 |
| RRIRWRPPRLPRPRPRPMCAPRP | 0.713 |
| RRIRKRPPRLPRPRPRPNFTPRP | 0.156 |
| RRIRARPPRLPRPRPRPLGAPRP | 0.726 |
| RRIRVRPPRLPRPRPRPDGVPRP | -0.0176 |
| RRIRHRPPRLPRPRPRPSGFPRP | 0.112 |
| RRIRFRPPRLPRPRPRPMTQPRP | -0.421 |
| RRIRNRPPRLPRPRPRPNHEPRP | -0.00884 |
| RRIRLRPPRLPRPRPRPGSEPRP | -0.0984 |
| RRIRERPPRLPRPRPRPVQRPRP | 0.0476 |
| RRIRGRPPRLPRPRPRPVIFPRP | 0.598 |

| Sequence | shrunken log2 fold change |
| --- | --- |
| RRIRARPPRLPRPRPRPVVTPRP | 0.254 |
| RRIRMRPPRLPRPRPRPLLCPRP | 0.473 |
| RRIRARPPRLPRPRPRPIRLPRP | -0.0928 |
| RRIRSRPPRLPRPRPRPEESPRP | -0.048 |
| RRIRHRPPRLPRPRPRPIRFPRP | -0.00142 |
| RRIRDRPPRLPRPRPRPYMRPRP | -0.0888 |
| RRIRTRPPRLPRPRPRPATDPRP | 0.313 |
| RRIRLRPPRLPRPRPRPAQQPRP | 0.0982 |
| RRIRMRPPRLPRPRPRPEYIPRP | 0.0145 |
| RRIRWRPPRLPRPRPRPGECPRP | 0.00474 |
| RRIRTRPPRLPRPRPRPHVVPRP | -0.0414 |
| RRIRSRPPRLPRPRPRPVSQPRP | -0.0165 |
| RRIRGRPPRLPRPRPRPHPTPRP | 0.973 |
| RRIRSRPPRLPRPRPRPCDYPRP | -0.238 |
| RRIRERPPRLPRPRPRPGWPPRP | 0.398 |
| RRIRTRPPRLPRPRPRPVKPPRP | 0.00237 |
| RRIRVRPPRLPRPRPRPASHPRP | 0.0857 |
| RRIRRRPPRLPRPRPRPHFAPRP | 0.382 |
| RRIRMRPPRLPRPRPRPFQMPRP | -0.323 |
| RRIRTRPPRLPRPRPRPQLAPRP | 0.129 |
| RRIRYRPPRLPRPRPRPHSPPRP | -0.0755 |
| RRIRGRPPRLPRPRPRPMDFPRP | 0.213 |
| RRIRPRPPRLPRPRPRPKVDPRP | 0.0884 |
| RRIRDRPPRLPRPRPRPEAAPRP | 1.84 |
| RRIRWRPPRLPRPRPRPMDTPRP | 0.128 |

| Sequence | shrunken log2 fold change |
| --- | --- |
| RRIRVRPPRLPRPRPRPDTCPRP | -0.135 |
| RRIRCRPPRLPRPRPRPVAFPRP | -0.169 |
| RRIRRRPPRLPRPRPRPPRIPRP | 1.08 |
| RRIRIRPPRLPRPRPRPGSCPRP | 0.968 |
| RRIRVRPPRLPRPRPRPPFAPRP | 0.583 |
| RRIRTRPPRLPRPRPRPRPWPRP | 0.0956 |
| RRIRKRPPRLPRPRPRPCFHPRP | -0.125 |
| RRIRDRPPRLPRPRPRPSGVPRP | 0.119 |
| RRIRIRPPRLPRPRPRPTSHPRP | -0.19 |
| RRIRMRPPRLPRPRPRPGHSPRP | 0.182 |
| RRIRMRPPRLPRPRPRPVEVPRP | 0.389 |
| RRIRQRPPRLPRPRPRPKIHPRP | -0.558 |
| RRIRERPPRLPRPRPRPFEMPRP | -0.536 |
| RRIRPRPPRLPRPRPRPPWLPRP | 0.57 |
| RRIRTRPPRLPRPRPRPAVGPRP | 0.532 |
| RRIRQRPPRLPRPRPRPLHVPRP | -0.324 |
| RRIRDRPPRLPRPRPRPYPGPRP | -0.0524 |
| RRIRCRPPRLPRPRPRPNKAPRP | -0.116 |
| RRIRERPPRLPRPRPRPIYCPRP | -0.143 |
| RRIRMRPPRLPRPRPRPLMLPRP | -0.0158 |
| RRIRRRPPRLPRPRPRPHAIPRP | -0.042 |
| RRIRIRPPRLPRPRPRPLSHPRP | -0.0521 |
| RRIRSRPPRLPRPRPRPESMPRP | 0.151 |
| RRIRTRPPRLPRPRPRPIDSPRP | -0.162 |
| RRIRVRPPRLPRPRPRPVYGPRP | -0.167 |

| Sequence | shrunken log2 fold change |
| --- | --- |
| RRIRSRPPRLPRPRPRPVRMPRP | 0.0776 |
| RRIRARPPRLPRPRPRPSKCPRP | -0.0295 |
| RRIRVRPPRLPRPRPRPFEYPRP | -0.151 |
| RRIRYRPPRLPRPRPRPWLMPRP | -0.0285 |
| RRIRRRPPRLPRPRPRPMNIPRP | -0.267 |
| RRIRNRPPRLPRPRPRPHRIPRP | -0.0314 |
| RRIRERPPRLPRPRPRPHWLPRP | -0.128 |
| RRIRSRPPRLPRPRPRPNLAPRP | -0.14 |
| RRIRIRPPRLPRPRPRPTGRPRP | -0.0536 |
| RRIRRRPPRLPRPRPRPRKHPRP | 0.535 |
| RRIRWRPPRLPRPRPRPVYHPRP | 0.161 |
| RRIRHRPPRLPRPRPRPFKFPRP | -0.376 |
| RRIRMRPPRLPRPRPRPIICPRP | -0.00127 |
| RRIRIRPPRLPRPRPRPGVDPRP | 0.0326 |
| RRIRTRPPRLPRPRPRPLSWPRP | 0.0654 |
| RRIRDRPPRLPRPRPRPCCRPRP | -0.197 |
| RRIRTRPPRLPRPRPRPFFMPRP | -0.231 |
| RRIRWRPPRLPRPRPRPLVEPRP | 0.2 |
| RRIRGRPPRLPRPRPRPSVAPRP | 1.37 |
| RRIRLRPPRLPRPRPRPGANPRP | -0.146 |
| RRIRMRPPRLPRPRPRPPWTPRP | 1.15 |
| RRIRCRPPRLPRPRPRPYMAPRP | -0.283 |
| RRIRPRPPRLPRPRPRPANIPRP | -0.617 |
| RRIRQRPPRLPRPRPRPEQYPRP | -0.0417 |
| RRIRARPPRLPRPRPRPEQQPRP | 0.785 |
